Holding throughout (assay type): binding
Assay [1] deals with T1, LPAR1 (Homo sapiens, UniProt Q92633). As to the kind of experiment: Transient-transfection CIFAT, fixed/permeabilised cells. On the set-up: HA; expressed in transfected cells; host or cells: CHO-K1 (transient, PEI). The note with it: 5 μg/mL.
The test system of assay [2] is Irrelevant GPCR. As to the kind of experiment: Transient-transfection CIFAT, irrelevant GPCR control (fixed and live cells). The note with it: cells expressing irrelevant GPCR. The protocol:
(§1) Anti-LPAR1 antibodies of the invention were tested alongside commercially available anti-LPAR1 antibodies in the transient-transfection CIFAT assay for live cells (method 1.11) and in the transient-transfection CIFAT assay for fixed cells (method 1.11).
The results are shown in FIGS. 11 and 12, wherein the scale bar represents 100 μm.

Assay [3] addresses T2, CHO-LPAR1 cells (Homo sapiens, UniProt Q92633).
T2 construct: expressed in transfected cells
As to the kind of experiment: Competition CIFAT. The note with it: data not shown. The method, then:
CHO-LPAR1 (GenScript) cells were seeded in black 96-well plates at 50,000 cells/200 μL full growth medium at and incubated for 24 hours at 37° C. The following day, the medium was removed from the wells and the cells incubated with 100 μg/mL primary antibody for 20 minutes at 37° C. After pre-incubation with the antibody, 10 μg/mL biotinylated competing antibody was added before incubation for 20 minutes at 37° C. After washing and cell fixation with 4% PFA, the binding of the antibodies was detected using an Alexa Fluor 488 streptavidin detection antibody (Molecular Probes), incubated for 45 minutes at 4° C. Fluorescence at 488 nm was measured using a BMG LABTECH ClarioStar plate reader and microscopy images were taken at 10× magnification.

Assay [4] deals with T1, LPAR1. As to the kind of experiment: Transient-transfection CIFAT, live cells. The note with it: 5 μg/mL or 20 μg/mL. On the set-up: HA; expressed in transfected cells; host or cells: CHO-K1 (transient, PEI). The method, then: CHO-K1 cells are seeded in multi well plates at 20,000 cells per 200 μL full growth medium and incubated for 24 hours at 37° C. In a sterile tube, 0.0309 uL/well PEI is diluted into 10 uL/well transfection medium (DMEM supplemented with 2 mM L-glutamine and Penicillin-Streptomycin). The diluted PEI is added to 100 ng/well DNA, before mixing immediately and incubating the mixture for 10 minutes at room temperature. 200 μL/well full growth medium is added to the PEI-DNA mixture, then medium in wells is taken off and 200 ul full growth medium/PEI/DNA mixture is added in the wells of the adherent cell plate. The plate is incubated for 24 hours at 37° C. The medium is discarded and replaced with 200 μL full growth medium. The plate is incubated for 24 hours at 37° C. Medium is removed from the wells and the cells incubated with primary antibody at varying concentrations for 75 minutes at 37° C. After washing and cell fixation with 4% PFA, the binding of the antibodies is detected using a goat anti-human detection antibody, incubated for 1 hour at room temperature. Fluorescence at 488 nm is measured.
CHO-K1 cells were seeded in clear 96-well plates at 20,000 cells per 200 μL full growth medium and incubated for 24 hours at 37° C. The following day, in a sterile tube, 0.0309 uL/well PEI (Generon, MW 160,000) was diluted into 10 uL/well transfection medium (DMEM supplemented with 2 mM L-glutamine and Penicillin-Streptomycin). The diluted PEI was added to 100 ng/well DNA encoding the target protein (human LPAR1 (SEQ ID NO: 62) unless otherwise stated), before vortexing immediately and incubating the mixture for 10 minutes at room temperature. 200 μL/well full growth medium was added to the PEI-DNA mixture, then medium in wells was taken off and 200 ul full growth medium/PEI/DNA mixture was added in the wells of the adherent cell plate. The plate was incubated for 24 hours at 37° C. The next day, the medium was discarded and replaced with 200 μL full growth medium. The plate was incubated for 24 hours at 37° C. The following day, medium was removed from the wells and the cells incubated with primary antibody at varying concentrations for 75 minutes at 37° C. After washing and cell fixation with 4% PFA, the binding of the antibodies was detected using a goat anti-human Alexa Fluor 488 detection antibody (Invitrogen), incubated for 1 hour at room temperature. Fluorescence at 488 nm was measured using a BMG LABTECH ClarioStar plate reader and microscopy images were taken at 10× magnification.
as §1

T2 sequence (Q92633 whole entry): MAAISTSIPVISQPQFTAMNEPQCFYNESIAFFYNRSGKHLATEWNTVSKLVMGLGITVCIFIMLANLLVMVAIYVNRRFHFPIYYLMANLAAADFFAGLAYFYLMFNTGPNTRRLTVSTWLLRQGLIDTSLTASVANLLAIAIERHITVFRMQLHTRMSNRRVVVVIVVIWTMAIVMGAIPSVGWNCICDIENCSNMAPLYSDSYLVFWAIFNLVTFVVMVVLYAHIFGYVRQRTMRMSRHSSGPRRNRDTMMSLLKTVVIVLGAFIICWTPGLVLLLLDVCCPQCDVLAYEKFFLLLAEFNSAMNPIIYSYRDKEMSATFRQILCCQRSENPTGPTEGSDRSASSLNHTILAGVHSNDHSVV
T1 sequence (Q92633 whole entry): as above

B1: 63D8: Further hybridoma antibody specific to LPAR1; VH SEQ ID NO: 113, VL SEQ ID NO: 114 (antibody, V domains shown)
VH: EVKLLESGGGLVQPGGSLKLSCTASGFDFSRYWMSWVRQAPGKGLEWIGEINPSRSAINYSPSLKDKFIISRDNAKNTLYLQMSKVRSEDTALYYCARQGQRLRYGMDYWGQGTSVTVSS
VL: DIVMTQSPNFMSTSVGDRVSVTCRASQDVRTAVAWYQQKPGRSPKLLIYWTSTRHTGVPDRFTGSGSGTDYTLTISSVQAADLALYYCQQHYGTPLTFGAGTNLELK
Turning to B1, the “LPAR1 fixed cell staining” value in assay [1] was “LPAR1-Significant fixed and live cell staining”. Further, the “Irrelevant GPCR cell staining” value in assay [2] is given as “Irrelevant GPCR-No significant cell staining”. In assay [3], the “competition for the same epitope” value is “compete for the same epitope”. Moreover, the “LPAR1 live cell staining” value in assay [4] is “LPAR1-Significant fixed and live cell staining”.

B2: Antibody 1: Hybridoma-derived antibody against LPAR1; VH SEQ ID NO: 23, VL SEQ ID NO: 24 (antibody, V domains shown)
VH: QVQLQQSGAELARPGASVKLSCKASGYTFTSSGISWVKQRTGQGLEWIGEILPRSGYTNYNEKFKGKASLTADKSSSTAYMELRSLTSEDSAVYFCARDFGSSRYAMDYWSQGTSVTVSS
VL: SIVMTQTPKLLPVSAGDRVTMTCKASQSVRYNVAWYQQKPGQSPKLLIYYASNRYTGVPDRFTGSGSGTDFTFTVRSVQVEDLAVYFCQQHYNSPLTFGSGTKLELR
For B2, in assay [3], the “competition for the same epitope” value is recorded as “compete for the same epitope”.

The values above are taken from patent US12599645B2, “Antibodies which bind to lysophosphatidic acid receptor 1 (LPAR1)” (DJS ANTIBODIES LTD, priority 2021, dated 2026).
